test system: MS2 coat protein; assay: apparent KD of MS2 coat protein; higher = weaker reporter binding; conditions: Eterna round: R107; input ligand: theophylline 2 mM
Method in brief: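 Binding of SNAP-549-labelled MS2 coat protein was measured on designed RNA switches transcribed on-chip from Illumina sequencing clusters. The protein rose in twofold steps from 0.7 or 1.5 nM to 3 µM, with 0.8–1.5 h per step early on and 10–20 min per step later, in 100 mM Tris-HCl pH 7.5, 80 mM KCl, 4 mM MgCl2, without or with constant ligand. Each design's apparent KD is the median of fits to its normalised cluster binding curves.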

“UAUCCACAUGAGGAUCACCCAUGUUAGGAAGGAGCGGUGAAUGAACCAGGUAGGUCGCCUAGCUGAGGACCAUCAAUGGAUUCGU [Exclusion - Arginine A (Freestyle 14)]” and “UGAUGGUGCGGAAGGAGCGUGUAAGAACAAGAACAUGAGGAUCACCCAUGUAUUAAUUUAACACAGGUAGGUCGCCGUGUUAUUG [11.K]” are within 1.5-fold of each other in “apparent KD of MS2 coat protein” value: 36.8 nM for the first, 29.6 nM for the second.

Going from “UAUCGUCAGACGGCCGCCACUAGAACAUGAGGAUCACCCAUGUAGGCGGCCGAUUCCUCAUGAACUAGGACCGGGUCUGACGAAU [(Trp1)-(Ms2)-(T)'-(M)'-(Trp2)_Design12]” to “UCGACAAGAACAAUAAACAGCACUUGAGAAGGAGCGCGGAAAUCCGCAGGUAGGUCGCUCAUGUGUACAUGAGGAUCACCCAUGU [Inveonxeed]”, the “apparent KD of MS2 coat protein” value rises from 8.89 nM to 40.8 nM (4.6-fold).

First: AUUACAUGGAUUACAACUAAAUCAACUGAAGGAGCGUGAAGGAUCACAGGUAGGUCGCAGUACAUGAGGAUCACCCAUGUUAUAA [JR_Nu_SSArginiA_Sub021]
Second: AUGCCUAGUGGAAGGAGCGAGGGUCUUCUCAACAUGAGGAUCACCCAUGUUCUUUUAUACCCUCAGGUAGGUCGCCAUUGGGACA [Anenre]
The “apparent KD of MS2 coat protein” value of the first is 1.8-fold higher: 45.9 nM for the first, 25.7 nM for the second.

“ACCUGUACGAAAAGUGCAGGACACGGAUAACGAGGACCGGUACGGCCGCCACUCGGAAUAACCUGAGGAUCACCCUGGUACCGUG [TrypAS 8 #AlternativeMS2 #Zipper #StaticStem]” and “GUUGGAUGCUCGGCCGCCACUGAGAGAGUCAUGUGAACAUGAGGAUCACCCAUGUAAUAUAUAUACAGGACCGGGAGUGUUGUAA [4.J]” are within 1.5-fold of each other in “apparent KD of MS2 coat protein” value: 23.2 nM for the first, 25 nM for the second.

same assay, conditions: Eterna round: R107; input ligand: tryptophan 2.4 mM

Going from “AAUCAUGGAAACAUGACAUGAGGGUUACUCCGAGGACCGGUACGGCCGCCACUCGCGAGGAGGCGGACAUGAGGAUCACCCAUGU [#04 Tryptophan A Same State]” to “ACAUGAGGAUCACCCAUGUUUGAUGUUCCUCGAGGACCGGUACGGCCGCCACUCGAACGAGUGGCGCGCGCGCGCGCGCGCGCGC [aQa]”, the “apparent KD of MS2 coat protein” value falls from 41.6 nM to 13 nM (3.2-fold).

Compared with “AGCGACAUGCGUGAUACCAGCUACAUGAGGAUCACCCAUGUACGUCAGAAAUGACUGUGUAGCCCUUGGCAGCAUAGUGCAUGUC [Exclusion - Theophylline B (Freestyle 20)]”, “GCACCAGGUACGGAUACCAGACGUUGCCAAACAGGGUGACAUGAGGAUCACCCAUGUACUGUCCCUUGGCAGCCGUACCUGGUGC [EThB NP+V+V2 #4 +-Same Structure]” is 1.5-fold lower in “apparent KD of MS2 coat protein” value: 34.8 nM for the first, 22.6 nM for the second.

“CGAAAGCAGUGAUCCAGCUUUCGCCUGGAAGGAGCGAGCGAAAGCUCAGGUAGGUCGCCAGAAACAUGAGGAUCACCCAUGUAAU [(A)''-(M)'-(A)'-(Arg1)-(Arg2)-(M1)-(M2)_Design8]” and “UCGCUCUGGGUGAAUCCCAGAGAUAUGGAAGGAGCGGACGAAAGUCCAGGUAGGUCGCCAUCGAACAUGAGGAUCACCCAUGUAC [Same State - Arginine A (Freestyle 27)]” are within 1.5-fold of each other in “apparent KD of MS2 coat protein” value: 75.5 nM for the first, 76.8 nM for the second.

First: AGGAAACAACAUGAGGAUCACCCAUGUGAUACCAGUAUCAAAAGAUACCCUUGGCAGCACACAUGACAUGAGGAUCACCCAUGUA [AstrosSSTheA#2]
Second: AAUGUGAUAGUCGUACUCUCACACUGAGAAGGAGCGCGAAAGUUCGCAGGUAGGUCGCUCAGUUAUACAUGAGGAUCACCCAUGU [Edgeised]
The “apparent KD of MS2 coat protein” value of the first is 3.6-fold higher: 74.4 nM for the first, 20.9 nM for the second.

Going from “GGGCGCUAUCCCGCGAGGGAUAGCGUUCGACGAGGACCGGUACGGCCGCCACUCGAACGAGUGGGUACAUGAGGAUCACCCAUGU [Gaa]” to “GUAAUUUUAAGAAGGAGCGUCGAAAAUGGGUAAACAUGAGGAUCACCCAUGUAAAGGGAACGACAGGUAGGUCGCUUAGGAUUAC [AstromonsSSArgB#23]”, the “apparent KD of MS2 coat protein” value rises from 25.9 nM to 198 nM (7.6-fold).

First: CUAAGAGUAGGAAGGAGCGACAUGAGGAUCACCCAUGUGGCUCUCAUGGCCCGGGUCUUAUGUCAGGUAGGUCGCCUACUGUUUA [Solave]
Second: UAUACAUGAGGAUCACCCAUGUGCCAUGAUACCAGACAUGAAAAUGUCCCUUGGCAGCAUGGGAGAUGUAUAGCGGGAAACCCGA [Turany]
The “apparent KD of MS2 coat protein” value of the first is 3-fold lower: 14.1 nM for the first, 42.6 nM for the second.

“GAUUUAACAAAAGUUGGAUCAGUGGGUGAACGAGGACCGGUACGGCCGCCACUCGGACAUGAGGAUCACCCAUGUCCAUGUGAAA [AstrosExyTryA#19]” and “UGAUAUGUGGGAAGGAGCGCAUACUUCACAUGAGGAUCACCCAUGUCAAGACGUGAGUCAGUGCAGGUAGGUCGCCUAGUUAUGA [Same State - Arginine B (Freestyle 19)]” are within 1.5-fold of each other in “apparent KD of MS2 coat protein” value: 77.1 nM for the first, 85.3 nM for the second.

First: ACAUGAGGAUCACCCAUGUAGCCUAGGGAAGGAGCGGCAUAAAAGCCAGGUAGGUCGCCCGCAUGAGGAUCACCCAUGUCAAGGA [Same State Arginine A GF7]
Second: UUAUCUAUAUUCGAUACCAGUACCCUGGCCGCAAAUCCUAACAUGAGGAUCACCCAUGUGUACCCUUGGCAGCGGGUAUGGGUUU [XTheo B #29]
The “apparent KD of MS2 coat protein” value of the first is 2.5-fold higher: 61 nM for the first, 24.2 nM for the second.

First: ACGAUAGGACACGAGGAUCACCCGUGUGAUACCAGCCUGGAAACAGGCCCUUGGCAGCACAAAUACUCCAAUAACCUAUCGAAUA [TheoAX 10 #MicroSwitchBubble #AlternativeMS2]
Second: AAUAUUAACUGAAGGAGCGUGUUAUGUACAUGAGGAUCACCCAUGUAUAGGGUAAUACUAACACAGGUAGGUCGCAGAAUAAUUA [JR_SSArginiB_Sub010]
The “apparent KD of MS2 coat protein” value of the first is 5.7-fold higher: 106 nM for the first, 18.5 nM for the second.

“UGUAUGGACUGAAGGAGCGGAAGAUACCAUGAGGAUCACCCAUGGAAUAAGGCGAAAGCCUUCCAGGUAGGUCGCAGUCCAUACU” and “GAGGUCCUGAGAGAUACCAGUGAGGCCACAUGAGGAUCACCCAUGUCCCUCACUCCGGCCCACCCUUGGCAGCUCGGAAGGUAAA [Exclusion Theophylline B GF 23]” are within 1.5-fold of each other in “apparent KD of MS2 coat protein” value: 19.8 nM for the first, 17.5 nM for the second.

Going from “AUACAUGAGGAUCACCCAUGUCAUUCAGAAGGAGCGUCAUUUUAGACAGGUAGGUCGCUGAUAGUAUUUUUAUACUUUAUGUUUA [JR_SSArginiA_Sub015]” to “AAGGGUGAGUCUCUAAUCCGUUUGACGGAUACCAGCGAGAGAUAUCGCCCUUGGCAGCCGACGACAUGAGGAUCACCCAUGUAAA [Exclusion - Theophylline A]”, the “apparent KD of MS2 coat protein” value falls from 21.6 nM to 14 nM (1.5-fold).

Going from “AAAUGAAGGCGAAGGAGCGGGAACAUGAGGAUCACCCAUGUGUAUGUAUGUAGUCAUGUAUCUCAGGUAGGUCGCGCUGUUACAU [Exclusion Arginine B 2]” to “UAUCCACAUGAGGAUCACCCAUGUUAGGAAGGAGCGGUGAAUGAACCAGGUAGGUCGCCUAGCUGAGGACCAUCAAUGGAUUCGU [Exclusion - Arginine A (Freestyle 14)]”, the “apparent KD of MS2 coat protein” value falls from 106 nM to 38.1 nM (2.8-fold).

Compared with “UGAUGGUGCGGAAGGAGCGUGUAAGAACAAGAACAUGAGGAUCACCCAUGUAUUAAUUUAACACAGGUAGGUCGCCGUGUUAUUG [11.K]”, “UAUCGUCAGACGGCCGCCACUAGAACAUGAGGAUCACCCAUGUAGGCGGCCGAUUCCUCAUGAACUAGGACCGGGUCUGACGAAU [(Trp1)-(Ms2)-(T)'-(M)'-(Trp2)_Design12]” is 1.5-fold lower in “apparent KD of MS2 coat protein” value: 20.2 nM for the first, 13.3 nM for the second.

Compared with “CAGAGACAUGAGGAUCACCCAUGUUGAGAUACCAGCUUGGUAUCGAGCCCUUGGCAGCUCGCCCAUCGUCUAUAUCAGCCUGAGC [theeternabot_sameState_MS2_Theo_A_40]”, “UCGACAAGAACAAUAAACAGCACUUGAGAAGGAGCGCGGAAAUCCGCAGGUAGGUCGCUCAUGUGUACAUGAGGAUCACCCAUGU [Inveonxeed]” is 2.1-fold higher in “apparent KD of MS2 coat protein” value: 16.8 nM for the first, 34.5 nM for the second.

“AGACAUGAGGAUCACCCAUGUAGCAUGGAUACCAGAUGUAGAUUAGUCCCUUGGCAGCUGUGGUAAAGUGAUGCAUUGCUCCUAG [Exclusion - Theophylline A (Freestyle 3)]” and “AUUACAUGGAUUACAACUAAAUCAACUGAAGGAGCGUGAAGGAUCACAGGUAGGUCGCAGUACAUGAGGAUCACCCAUGUUAUAA [JR_Nu_SSArginiA_Sub021]” are within 1.5-fold of each other in “apparent KD of MS2 coat protein” value: 38.8 nM for the first, 39.6 nM for the second.

Going from “AUGCCUAGUGGAAGGAGCGAGGGUCUUCUCAACAUGAGGAUCACCCAUGUUCUUUUAUACCCUCAGGUAGGUCGCCAUUGGGACA [Anenre]” to “ACCUGUACGAAAAGUGCAGGACACGGAUAACGAGGACCGGUACGGCCGCCACUCGGAAUAACCUGAGGAUCACCCUGGUACCGUG [TrypAS 8 #AlternativeMS2 #Zipper #StaticStem]”, the “apparent KD of MS2 coat protein” value falls from 34.8 nM to 19 nM (1.8-fold).

With “GUUGGAUGCUCGGCCGCCACUGAGAGAGUCAUGUGAACAUGAGGAUCACCCAUGUAAUAUAUAUACAGGACCGGGAGUGUUGUAA [4.J]” the “apparent KD of MS2 coat protein” value was 13.3 nM.

— the supplement of paper PMC9170038
